* marks the point of attachment. MTSL = spin label, CC1(C)C=C(CS*)C(C)(C)N1[O]
Key:
[1] = biological target: T1, UL34^(174–194) peptide, spin-labelled at C182 (herpes simplex virus 1 (HSV-1), UniProt P10218 174-194, N-terminally acetylated; C-terminally amidated; MTSL spin label on the native cysteine C182); test: DEER (double electron-electron resonance) spectroscopy; MTSL spin-labelled peptides, approximately 50 μM peptide or 1:1 peptide mixture with POPC/POPS/POPA 3:1:1 SUVs, 1:200 P/L ratio, incubated 10 min at 25°C, frozen, measured at 60 K; details: both partners purified
T1 construct: also called UL34 MPR peptide; C182_(34); source: synthetic peptide, bought: Peptide 2.0
T1 peptide: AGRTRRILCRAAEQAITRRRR

[2] = biological target: T2, UL34^(174–194) peptide, unlabelled (herpes simplex virus 1 (HSV-1), UniProt P10218 174-194, N-terminally acetylated; C-terminally amidated); test: cross-linking; SM(PEG)6 at 50-fold molar excess, 30 min at room temperature in PBS, with 1 mM POPC/POPS/POPA 3:1:1 SUVs; 50 μM peptide, or 25 μM each in mixtures; 16% Tris-tricine SDS-PAGE, Coomassie; details: both partners purified
T2 construct: also called UL34 MPR peptide; source: synthetic peptide, bought: Peptide 2.0
T2 peptide: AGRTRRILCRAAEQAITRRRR

B1: UL31^(22–C43) peptide, spin-labelled (peptide)
peptide: Ac-RRSRSSAAGGTLGVVRRASRKC(MTSL)-NH2
notes: also called C43_(31); source: synthetic peptide, bought: Peptide 2.0
B1: binds [1].

B2: UL31^(22–42) peptide (peptide)
peptide: Ac-RRSRSSAAGGTLGVVRRASRK-NH2
notes: source: synthetic peptide, bought: Peptide 2.0
B2: binds [2].

B3: UL31^(C40–50) peptide, spin-labelled (peptide)
peptide: Ac-C(MTSL)RKSLPPHARK-NH2
SMILES: CC(=O)N[C@@H](CSSCC1=CC(C)(C)N([O])C1(C)C)C(=O)N[C@@H](CCCNC(=N)N)C(=O)N[C@@H](CCCCN)C(=O)N[C@@H](CO)C(=O)N[C@@H](CC(C)C)C(=O)N1CCC[C@H]1C(=O)N1CCC[C@H]1C(=O)N[C@@H](Cc1c[nH]cn1)C(=O)N[C@@H](C)C(=O)N[C@@H](CCCNC(=N)N)C(=O)N[C@@H](CCCCN)C(N)=O
notes: also called mini-MPR with N-terminal cysteine; C40_(31); source: synthetic peptide, bought: Peptide 2.0
B3: binds [1].

B4: UL31^(41–C51) peptide, spin-labelled (peptide)
peptide: Ac-RKSLPPHARKC(MTSL)-NH2
SMILES: CC(=O)N[C@@H](CCCNC(=N)N)C(=O)N[C@@H](CCCCN)C(=O)N[C@@H](CO)C(=O)N[C@@H](CC(C)C)C(=O)N1CCC[C@H]1C(=O)N1CCC[C@H]1C(=O)N[C@@H](Cc1c[nH]cn1)C(=O)N[C@@H](C)C(=O)N[C@@H](CCCNC(=N)N)C(=O)N[C@@H](CCCCN)C(=O)N[C@@H](CSSCC1=CC(C)(C)N([O])C1(C)C)C(N)=O
notes: also called mini-MPR with C-terminal cysteine; C51_(31); source: synthetic peptide, bought: Peptide 2.0
B4: binds [1].

B5: UL31^(C21–42) peptide, spin-labelled (peptide)
peptide: Ac-C(MTSL)RRSRSSAAGGTLGVVRRASRK-NH2
notes: also called C21_(31); source: synthetic peptide, bought: Peptide 2.0
B5: binds [1].

B6: UL31^(41–50) peptide (peptide)
peptide: Ac-RKSLPPHARK-NH2
notes: also called UL31 mini-MPR peptide; source: synthetic peptide, bought: Peptide 2.0
B6: binds [2].
